One test concerns C81 cells. As to the kind of experiment: Sensitivity of C81 transfectants to 4 Gy gamma radiation. It counts as cell-based, human. As to conditions: C81 EPB1 transfectants, 72 h after exposure (vector less than 10%). The source says:
Restoration or increase of EPB1 expression can sensitize the androgen independent prostate cancer C81 cells to radiation. Radiotherapy is another important treatment for locally and regionally advanced prostate cancer. However, resistance of prostate cancer cells to radiation limits its efficacy and dose escalation is obviously not the solution to this common phenomenon. Bcl-2 overexpression may be the same critical molecule underlying the resistance to radiotherapy as to the chemotherapy in prostate cancer. 4 Gy gamma radiation killed 100% of EPB1 transfectants while less than 10% of C81 vector transfectants were dead in 72 h after exposure to the same 4 Gy gamma irradiation. […] Without being bound by theory, it is contemplated that the increase in sensitivity to radiation might be due to the decreased levels of Bcl-2 in EPB1 transfectants given the importance of Bcl-2 function in resistance to radiation.

The test system of test [1] is LNCaP cells. As to the kind of experiment: Cell growth assays of LNCaP EPB1 transfectants (complete media, soft agar). It counts as cell-based, human. The method, then:
Cell Growth Assays: To measure growth in complete media, cells (2×10^4) were seeded in triplicate in individual wells of 12-well tissue culture plates in RPMI-1640 with 10% FBS and cultured for the indicated number of days. Cells were trypsinized, stained with Trypan Blue (0.4%), and counted in a hemacytometer. For soft agar growth assays, increasing concentrations of cells (as indicated) were plated in 35 mm Petri dishes in complete media and 0.3% Difco Bacto Agar over an 0.5% agar layer. Colonies were counted after 10 days of incubation. For studies assessing the effect of dihydrotestosterone (DHT) on cell growth, cells (2×10^4) were plated in 12-well plates in complete media. After a 24-hour attachment period, the medium was replaced with steroid-free medium [phenol red-free RPMI 1640 and 5% charcoal-stripped FBS (Sigma)] for 48 hours. The final concentration of testosterone in the steroid-reduced media was less than 5 pM. After 48 hours of steroid depletion, cells were re-fed with fresh steroid-reduced medium with or without the indicated concentrations of DHT and/or bicalutamide (10 μM), and total cell numbers were assessed 7 days later.

A further test concerns MCF-7 cells. As to the kind of experiment: Western blot of ErbB2 and ErbB3 in MCF-7 EBP1 transfectants. It counts as cell-based, human. Particulars: MCF-7-EBP1 transfectants vs vector controls. The method, then:
FIG. 10A-C. Effect of ectopic expression of EBP1 on ErbB3 or ErbB2 protein levels. (A and B) Lysates of logarithmically growing MCF-7 vector control cells (CMV) or EBP1 transfected cells (Ebp1) or (C) AU565 cells were blotted with antibodies for ErbB3 or ErbB2 and actin as indicated. Data are representative of three experiments.
2.5. Western blot analysis. Total cell extracts were prepared by direct lysis of cells with lysis buffer [50 mM Tris-HCl (pH 7.4), 1 mM EDTA, 250 mM NaCl, 1% Triton X-100, 0.5 mM DTT, and 1× Complete™ protease inhibitor]. Protein concentrations were measured using a detergent compatible kit (Bio-Rad). Proteins (30 lg per well) were resolved by SDS-PAGE, transferred to PVDF membranes, and immunoblotted as described. […] Images were quantified using IMAGE-J software (NIH). […] Relative cell numbers were determined 4 days later using a Promega Proliferation Reagent as per manufacturer's instructions with absorbance being read at 490 nm using a Dynex plate reader. […] Data were analyzed using a two-tailed Students t-test and a p <0.05 was deemed statistically significant. […]
In general terms: Immunoblotting shows a protein as a band on a membrane.

In test [2] the test system is LNCaP cells. As to the kind of experiment: LNCaP xenografts in SCID mice. It counts as in vivo. The method, then: In Vivo Studies in SCID Mice: Male SCID mice, 4-6 weeks of age, were purchased from the National Cancer Institute (Frederick, Md.). Animals were housed in a pathogen-free environment under controlled conditions of light and humidity and received food and water ad libitum. LNCaP cells were grown in complete medium and 800 μg/ml of G418 until 80% confluent. Cells were scraped into phosphate-buffered saline (PBS), collected by centrifugation, and suspended in Matrigel™ (10 mg/ml) (Collaborative Research, Waltham, Mass.) at 1×10^7 cells/ml. Each mouse received s.c. injections at one site on each flank with 100 μl of cell suspension. Tumors were measured three times a week with calipers, and tumor volumes were calculated by the formula 0.5236×r1^2×r2 (r1<r2). The animal protocols were approved by the Institutional Animal Care and Use Committee at the University of Maryland.
After sacrifice, tumors were excised and fixed in 10% buffered neutral formalin. Sections of formalin-fixed, paraffin-embedded tissues were cut to 5 μm. Slides were stained with an EPB1 antibody (Upstate) diluted 1:50 using the standard avidin-biotin method (Vector Labs, Burlinghame, Calif.). Peroxidase activity was localized by the diaminobenzidine tetrachloride peroxidase reaction with Harris hematoxylin as a counterstain.

B1: EBP1: ErbB3 binding protein (SEQ ID NO: 2), AR corepressor, here ectopically expressed in cancer cells by stable transfection of an expression plasmid (protein, listed as Homo sapiens)
chain: MSGEDEQQEQTIAEDLVVTKYKMGGDIANRVLRSLVEASSSGVSVLSLCEKGDAMIMEETGKIFKKEKEMKKGIAFPTSISVNNCVCHFSPLKSDQDYILKEGDLVKIDLGVHVDGFIANVAHTFVVDVAQGTQVTGRKADVIKAAHLCAEAALRLVKPGNQNTQVTEAWNKVAHSFNCTPIEGMLSHQLKQHVIDGEKTIIQNPTDQQKKDHEKAEFEVHEVYAVDVLVSSGEGKAKDAGQRTTIYKRDPSKQYGLKMKTSRAFFSEVERRFDAMPFTLRAFEDEKKARMGVVECAKHELLQPFNVLYEKEGEFVAQFKFTVLLMPNGPMRITSGPFEPDLYKSEMEVQDAELKALLQSSASRKTQKKKKKKASKTAENATSGETLEENEAGD
modifications: FLAG tag
As to B1, in the test on C81 cells, the “cells killed by 4 Gy gamma radiation” value is recorded as 100%. Also, the “growth rate in complete media” value in the test with LNCaP cells [1] (LNCaP EPB1 transfectants vs vector control, p<0.05) is “significantly decreased”. This molecule also gave a doubling time in the test on LNCaP cells [1] (LNCaP EPB1 transfectants, complete media (vector control 48 hours)) of 72 h. Moreover, in the test on LNCaP cells [1] (LNCaP, highest cell concentration tested, ten days), the “decrease of colony growth in soft agar” value is reported as “approximately 90%”. Moreover, in the test on MCF-7 cells, the ErbB2 protein level result is “significantly decreased” and the ErbB3 protein level entry is on record as “no change”. In addition, the “inoculation sites with tumors on day 20” value in the test with LNCaP cells [2] (EBP1-transfected LNCaP s.c. in SCID mice (vector controls 35%)) worked out at 10%. Also, the “sites that developed tumors at the end of the study” value with LNCaP cells [2] (EBP1-transfected LNCaP s.c. in SCID mice (vector more than 85%), p=0.04) is “less than 40%”. For the same molecule, the “average tumor volume at the end of the study” value in the test on LNCaP cells [2] (EPB1-transfected LNCaP in SCID mice (vector 1214±168), p=0.0003) was found to be 268±70 mm^3. Further, the tumor growth rate entry with LNCaP cells [2] (EPB1 transfectants vs vector, all time points, p=0.0001) was “slower”.

The record behind these values is patent publication US7838495B2, “Compositions and methods of use of EPB1, and ErbB3 binding protein” (University of Maryland, Baltimore, priority 2007, dated 2010).
